Test results taken from article doi:10.1101/2021.03.07.433908 (bioRxiv, 2021).

Molecular target: the molecule itself
Assay: pulsed field gradient diffusion NMR

B1: Human αB-crystallin (natural protein)
chain: MDIAIHHPWIRRPFFPFHSPSRLFDQFFGEHLLESDLFPTSTSLSPFYLRPPSFLRAPSWFDTGLSEMRLEKDRFSVNLDVKHFSPEELKVKVLGDVIEVHGKHEERQDEHGFISREFHRKYRIPADVDPLTITSSLSSDGVLTVNGPRKQVSGPERTIPITREEKPAVTAAPKK
modifications: 15N labelled (HSQC spectra); 2H/13CH3 Ile δ1, Val γ1/γ2, Leu δ1/δ2 labelled (binding studies and diffusion analyses)
stoichiometry N: 28
